# Source: patent publication US12364733B1, “Method for treating septic shock” (Inotrem, priority 2018, dated 2025)
# “Also recorded” adds a separate entry of the source.
# Tests used:
# septic shock patients [1] = assay: Phase IIa clinical trial with nangibotide: days alive and free from vasopressor, IMV or CRRT; type: in vivo, human; conditions: for difference in the number of CRRT (continuous renal replacement therapy) free days alive vs. placebo / difference in the number of IMV (invasive mechanical ventilation) free days alive vs. placebo / difference in the number of vasopressor free days alive vs. placebo: day 0 to day 28
# Protocol: (§1) This was a randomized, double-blind, two-stage, placebo-controlled study. As described in FIG. 7, the study was composed of 2 stages with a similar treatment regimen, in which 0.3, 1.0 or 3.0 mg/kg/h of nangibotide (corresponding to peptide LR12, having an amino acid sequence as set forth in SEQ ID NO: 9, also known as motrem) was tested versus placebo. All patients with a diagnosis of septic shock were considered for study participation. All potential study patients underwent standard care management procedures. Patients with evidence of septic shock according to the Sepsis-3 definition (Singer et al, JAMA 2016) were considered for inclusion (i.e., patients suffering from sepsis and having (i) persisting hypotension requiring vasopressors to maintain their mean arterial pressure ≥65 mm Hg and (ii) a serum lactate level >2 mmol/L (18 mg/dL) despite adequate volume resuscitation).
# (§2) After screening for eligibility, patients were randomized to one of the treatment arms. Then, they received either a 5 mg/kg loading dose of nangibotide over 15 minutes followed by a continuous intravenous (i.v.) infusion of nangibotide or a matching placebo on top of standard of care. Treatment with study drug was initiated as early as possible, but no later than 24 hours after the onset of septic shock, defined by the start of vasopressor therapy. Patients were treated until 12 (±2) hours after the resolution of their septic shock (defined as vasopressor withdrawal) with a maximum treatment duration of 5 days (120 hours).
# Adverse events (AEs) were coded using the MedDRA dictionary version 18.1. Treatment-emergent adverse events (TEAEs) were summarized and listed. Analysis was performed in 49 septic shock patients. The demographic and baseline characteristics were summarized in a descriptive fashion within each population: categorical variables were summarized by contingency tables (frequencies and percentages). sTREM-1 levels at day 1 were also described (mean, standard deviation, standard error, median, quartiles and range, minimum and maximum values). Mortality rates were reported by frequency and percentage. For continuous endpoints, i.e., the sequential organ failure assessment (SOFA), missing data were imputed using LOCF (Last Observation Carry-Forward). For time-to-event analyses, i.e., duration of invasive mechanical ventilation (IMV), duration of continuous renal replacement therapy (CRRT), survival, censored data techniques were utilized. In addition, a sensitivity analysis of time to event data (except survival) was performed using censoring at maximum limit for the corresponding observation period (i.e., either day 28 or day 90). […] The following comparisons were made: each nangibotide dose arm to placebo, all nangibotide doses combined versus placebo, and dose-response using an ordinal trend test. Exploratory composite endpoint: incidence (number and proportion) of patients alive at day 28 and free of vasopressor, free of IMV and free of CRRT were summarized by treatment and compared between treatments with a Fisher's exact test. For pharmacodynamic markers, log transformed data were represented as percentage change from baseline at day 5 or End of Infusion (EOI) if end of infusion was stopped before day 5. […] “All nangibotide” refers to analyses obtained by pooling data from 0.3, 1 and 3 mg/kg/h nangibotide-treated groups.
# septic shock patients [2] = assay: Phase IIa clinical trial with nangibotide in septic shock patients (NCT03158948): safety, treatment emergent adverse events; type: in vivo, human; conditions: for safety and tolerability: up to 3 mg/kg/h
# Protocol: This was a European prospective, […], multinational study in 14 centers from 4 countries (France, Belgium, the Netherlands, and Spain). Patients were recruited from July 2017 to June 2018. The study was conducted in accordance with the principles set forth in the Declaration of Helsinki and subsequent amendments, the Guidelines of the International Conference on Harmonization on GCP, as well as the requirements of national drug and data protection laws and other applicable regulatory requirements.
# as §1, §2
# Stage 1 was performed to investigate ascending doses of nangibotide or placebo in a sequential design in cohorts of 4 patients (3:1 randomization). After completion of a cohort, safety and PK data were reviewed by an independent data safety monitoring board (DSMB) and the study could progress to the next cohort/stage. Stage 2 investigated 3 doses of nangibotide in a randomized, balanced, parallel-group design involving up to 3 doses of nangibotide and a placebo arm.
# Adverse events (AEs) were coded using the MedDRA dictionary version 18.1. Treatment-emergent adverse events (TEAEs) were summarized and listed. Analysis was performed in 49 septic shock patients. The demographic and baseline characteristics were summarized in a descriptive fashion within each population: categorical variables were summarized by contingency tables (frequencies and percentages). sTREM-1 levels at day 1 were also described (mean, standard deviation, standard error, median, quartiles and range, minimum and maximum values). Mortality rates were reported by frequency and percentage. For continuous endpoints, i.e., the sequential organ failure assessment (SOFA), missing data were imputed using LOCF (Last Observation Carry-Forward). For time-to-event analyses, i.e., duration of invasive mechanical ventilation (IMV), duration of continuous renal replacement therapy (CRRT), survival, censored data techniques were utilized. In addition, a sensitivity analysis of time to event data (except survival) was performed using censoring at maximum limit for the corresponding observation period (i.e., either day 28 or day 90). […] The following comparisons were made: each nangibotide dose arm to placebo, all nangibotide doses combined versus placebo, and dose-response using an ordinal trend test. […]
# [3] = baseline high sTREM-1 subgroup, 0.3 mg/kg/h
# [4] = baseline high sTREM-1 subgroup, 3 mg/kg/h
# [5] = baseline high sTREM-1 subgroup, all nangibotide
# [6] = baseline low sTREM-1 subgroup, 0.3 mg/kg/h
# [7] = baseline low sTREM-1 subgroup, 3 mg/kg/h
# [8] = baseline low sTREM-1 subgroup, all nangibotide
# [9] = whole population, all nangibotide
substance,measurement,setting,value
nangibotide (LQEEDAGEYGCM; TLT-1 peptide),proportion of patients alive and free of any medical support at day 28,"septic shock patients [1]; all nangibotide group, patients with high circulating sTREM-1 at baseline (above 433 pg/mL), placebo 40%",70%
same,difference in the number of CRRT (continuous renal replacement therapy) free days alive vs. placebo,septic shock patients [1]; [3],8.67 days
same,difference in the number of IMV (invasive mechanical ventilation) free days alive vs. placebo,septic shock patients [1]; [3],2.63 days
same,difference in the number of vasopressor free days alive vs. placebo,septic shock patients [1]; [3],4.07 days
same,difference in the number of CRRT (continuous renal replacement therapy) free days alive vs. placebo,septic shock patients [1]; [4],7.37 days
same,difference in the number of IMV (invasive mechanical ventilation) free days alive vs. placebo,septic shock patients [1]; [4],4.30 days
same,difference in the number of vasopressor free days alive vs. placebo,septic shock patients [1]; [4],-0.48 days
same,difference in the number of CRRT (continuous renal replacement therapy) free days alive vs. placebo,septic shock patients [1]; [5],7.85 days
same,difference in the number of IMV (invasive mechanical ventilation) free days alive vs. placebo,septic shock patients [1]; [5],5.63 days
same,difference in the number of vasopressor free days alive vs. placebo,septic shock patients [1]; [5],2.94 days
same,difference in the number of CRRT (continuous renal replacement therapy) free days alive vs. placebo,septic shock patients [1]; [6],1.43 days
same,difference in the number of IMV (invasive mechanical ventilation) free days alive vs. placebo,septic shock patients [1]; [6],3 days
same,difference in the number of vasopressor free days alive vs. placebo,septic shock patients [1]; [6],2.29 days
same,difference in the number of CRRT (continuous renal replacement therapy) free days alive vs. placebo,septic shock patients [1]; [7],0.89 days
same,difference in the number of IMV (invasive mechanical ventilation) free days alive vs. placebo,septic shock patients [1]; [7],-6.32 days
same,difference in the number of vasopressor free days alive vs. placebo,septic shock patients [1]; [7],0.07 days
same,difference in the number of CRRT (continuous renal replacement therapy) free days alive vs. placebo,septic shock patients [1]; [8],0.77 days
same,difference in the number of IMV (invasive mechanical ventilation) free days alive vs. placebo,septic shock patients [1]; [8],-1.30 days
same,difference in the number of vasopressor free days alive vs. placebo,septic shock patients [1]; [8],0.64 days
same,"vasopressor use, invasive mechanical ventilation (IMV) use and renal replacement therapy (RRT) use vs. placebo",septic shock patients [1]; no statistically significant differences,consistent numerical trend in favor of nangibotide
same,difference in the number of CRRT (continuous renal replacement therapy) free days alive vs. placebo,"septic shock patients [1]; whole population, 0.3 mg/kg/h",4.10 days
same,difference in the number of IMV (invasive mechanical ventilation) free days alive vs. placebo,"septic shock patients [1]; whole population, 0.3 mg/kg/h",2.32 days
same,difference in the number of CRRT (continuous renal replacement therapy) free days alive vs. placebo,"septic shock patients [1]; whole population, 3 mg/kg/h",1.50 days
same,difference in the number of IMV (invasive mechanical ventilation) free days alive vs. placebo,"septic shock patients [1]; whole population, 3 mg/kg/h",-2.08 days
same,difference in the number of CRRT (continuous renal replacement therapy) free days alive vs. placebo,septic shock patients [1]; [9],2.70 days
same,difference in the number of IMV (invasive mechanical ventilation) free days alive vs. placebo,septic shock patients [1]; [9],1.33 days
same,"All TEAEs leading to treatment withdrawal, % of all TEAEs",septic shock patients [2]; 0.3 mg/kg/h,(0.0%)
same,"All TEAEs leading to treatment withdrawal, number",septic shock patients [2]; 0.3 mg/kg/h,0
same,"All TEAEs related to study drug (by investigator), % of all TEAEs",septic shock patients [2]; 0.3 mg/kg/h,(0.0%)
same,"All TEAEs related to study drug (by investigator), number",septic shock patients [2]; 0.3 mg/kg/h,0
same,"All TEAEs with intensity severe, % of all TEAEs",septic shock patients [2]; 0.3 mg/kg/h,(21.4%)
same,"All TEAEs with intensity severe, number",septic shock patients [2]; 0.3 mg/kg/h,12
same,"All serious TEAEs (including death), % of all TEAEs",septic shock patients [2]; 0.3 mg/kg/h,(8.9%)
same,"All serious TEAEs (including death), number",septic shock patients [2]; 0.3 mg/kg/h,5
same,"All TEAEs leading to treatment withdrawal, % of all TEAEs",septic shock patients [2]; 1.0 mg/kg/h,(0.0%)
same,"All TEAEs leading to treatment withdrawal, number",septic shock patients [2]; 1.0 mg/kg/h,0
same,"All TEAEs related to study drug (by investigator), % of all TEAEs",septic shock patients [2]; 1.0 mg/kg/h,(7.1%)
same,"All TEAEs related to study drug (by investigator), number",septic shock patients [2]; 1.0 mg/kg/h,4
same,"All TEAEs with intensity severe, % of all TEAEs",septic shock patients [2]; 1.0 mg/kg/h,(23.2%)
same,"All TEAEs with intensity severe, number",septic shock patients [2]; 1.0 mg/kg/h,13
same,"All serious TEAEs (including death), % of all TEAEs",septic shock patients [2]; 1.0 mg/kg/h,(5.4%)
same,"All serious TEAEs (including death), number",septic shock patients [2]; 1.0 mg/kg/h,3
same,"All TEAEs leading to treatment withdrawal, % of all TEAEs",septic shock patients [2]; 3.0 mg/kg/h,(0.0%)
same,"All TEAEs leading to treatment withdrawal, number",septic shock patients [2]; 3.0 mg/kg/h,0
same,"All TEAEs related to study drug (by investigator), % of all TEAEs",septic shock patients [2]; 3.0 mg/kg/h,(0.0%)
same,"All TEAEs related to study drug (by investigator), number",septic shock patients [2]; 3.0 mg/kg/h,0
same,"All TEAEs with intensity severe, % of all TEAEs",septic shock patients [2]; 3.0 mg/kg/h,(13.1%)
same,"All TEAEs with intensity severe, number",septic shock patients [2]; 3.0 mg/kg/h,8
same,"All serious TEAEs (including death), % of all TEAEs",septic shock patients [2]; 3.0 mg/kg/h,(8.2%)
same,"All serious TEAEs (including death), number",septic shock patients [2]; 3.0 mg/kg/h,5
same,adverse events related to nangibotide treatment at the highest dose,septic shock patients [2]; highest dose,no adverse events related to nangibotide treatment were observed
same,"AEs related to infections and cardiac disorders, nangibotide groups vs placebo","septic shock patients [2]; human, in vivo",proportionally higher in the nangibotide groups
same,"incidence of atrial fibrillation and thrombocytopenia, nangibotide groups vs placebo","septic shock patients [2]; human, in vivo",proportionally higher in the nangibotide groups
same,"number of SAEs/AEs and number of patients with SAEs/AEs, nangibotide groups vs placebo group","septic shock patients [2]; human, in vivo",comparable
same,"suspected unexpected serious adverse reactions (SUSARs), number","septic shock patients [2]; nangibotide-treated group, without obvious explanation",Two
same,adverse events leading to treatment withdrawal,"septic shock patients [2]; septic shock patients, 0.3-3.0 mg/kg/h",No adverse events (AEs) led to treatment withdrawal
same,safety and tolerability,septic shock patients [2]; septic shock patients,safe and well-tolerated
same,safety and tolerability,"septic shock patients [2]; septic shock patients, listed as nangibotide",safe and well tolerated; also recorded: well-tolerated at all doses tested
